Test results from the supplement of paper PMC10567573.

B1: CDC25B (parent)
chain: FVDILESDLKDDDAVPPGMESLIS
B2: PTPN9 (parent)
chain: NKWTVQYNVSPLSWNVAVKFLMAR
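Also: lentivirally expressed fusions sorted by FACS into six bins by GFP to DsRed ratio, PSI derived from sequencing read proportions per bin multiplied by bin number.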

Variants of: B1
Experiment: protein stability index of a GFP-peptide fusion (GPS, HEK-293T) (PSI 1-6); higher = more stable
Settings: c terminus: a fixed tail appended
Work on L22K yielded a protein stability index of 2.99.
With D12R the protein stability index was 2.16.
Work on D12K yielded a protein stability index of 2.78.
With D12E the protein stability index was 2.93.
Work on S21D yielded a protein stability index of 3.15.
For S21E, the protein stability index was 3.05.
With F1R the protein stability index was 4.96.
In the case of I23D, the protein stability index is reported as 3.7.
In the case of I23E, the protein stability index is reported as 3.57.
Variant I23Q has a protein stability index of 3.77.
In the case of I23L, the protein stability index is reported as 3.07.
Variant I23P has a protein stability index of 2.96.
Work on I23K yielded a protein stability index of 2.83.
With D3V the protein stability index was 1.86.
D3M showed a protein stability index of 1.92.
E20P showed a protein stability index of 2.44.
E20K gave a protein stability index of 2.74.
E20S showed a protein stability index of 2.43.
Variant V15Q has a protein stability index of 2.87.
V15T gave a protein stability index of 2.92.
Variant P16C has a protein stability index of 2.68.
Work on D11A yielded a protein stability index of 3.
Work on D11S yielded a protein stability index of 2.94.
G18A showed a protein stability index of 3.03.
In the case of G18I, the protein stability index is reported as 2.32.
K10R showed a protein stability index of 2.75.
Work on K10N yielded a protein stability index of 2.87.
K10Q showed a protein stability index of 2.97.
For I4P, the protein stability index was 4.03.
Work on I4C yielded a protein stability index of 3.91.
Work on I4G yielded a protein stability index of 3.46.
Work on S7L yielded a protein stability index of 2.21.
With S24K the protein stability index was 2.82.
With S24G the protein stability index was 3.02.
Work on S24R yielded a protein stability index of 2.96.
With L9S the protein stability index was 3.36.
L9I gave a protein stability index of 3.05.
In the case of L9A, the protein stability index is reported as 3.09.
L9Y gave a protein stability index of 3.18.
In the case of L9K, the protein stability index is reported as 3.4.
D13V gave a protein stability index of 2.39.
D13R showed a protein stability index of 2.1.
Variant D13A has a protein stability index of 3.04.
With D13S the protein stability index was 2.63.
Work on D8T yielded a protein stability index of 2.66.
For D8N, the protein stability index was 3.18.
Variant L5F has a protein stability index of 2.35.
Work on M19Y yielded a protein stability index of 2.32.
M19D showed a protein stability index of 3.48.
In the case of M19T, the protein stability index is reported as 3.09.
Variant M19C has a protein stability index of 2.91.

Variants of: B2
Experiment: as above
Settings: c terminus: a fixed tail appended
V18C showed a protein stability index of 2.73.
V18Q showed a protein stability index of 1.49.
In the case of V18I, the protein stability index is reported as 2.62.
In the case of A17T, the protein stability index is reported as 2.28.
For A17F, the protein stability index was 1.58.
A17N showed a protein stability index of 1.22.
In the case of A17H, the protein stability index is reported as 2.23.
For Y7C, the protein stability index was 2.47.
In the case of Y7M, the protein stability index is reported as 2.91.
Y7P gave a protein stability index of 1.84.
With Y7G the protein stability index was 1.15.
With Y7I the protein stability index was 2.83.
Y7L showed a protein stability index of 2.76.
For Y7V, the protein stability index was 3.44.
With F20G the protein stability index was 2.97.
Work on F20K yielded a protein stability index of 1.4.
With F20C the protein stability index was 1.68.
For F20H, the protein stability index was 1.67.
F20E showed a protein stability index of 2.68.
F20P gave a protein stability index of 1.68.
With F20R the protein stability index was 3.62.
K2M showed a protein stability index of 3.14.
With K2A the protein stability index was 2.25.
With K2D the protein stability index was 3.84.
For K2L, the protein stability index was 3.54.
K2R gave a protein stability index of 1.66.
With W14V the protein stability index was 2.4.
W14H showed a protein stability index of 2.15.
For W14L, the protein stability index was 2.71.
With W14N the protein stability index was 2.06.
W14S showed a protein stability index of 1.78.
Work on V9Y yielded a protein stability index of 2.1.
For V9K, the protein stability index was 2.56.
With V9A the protein stability index was 3.1.
For V9L, the protein stability index was 2.45.
Variant V9D has a protein stability index of 2.06.
V9Q showed a protein stability index of 1.43.
N1S showed a protein stability index of 1.54.
Variant N1V has a protein stability index of 2.06.
N1F showed a protein stability index of 3.7.
In the case of S13E, the protein stability index is reported as 1.69.
Work on S13Y yielded a protein stability index of 2.32.
With S13R the protein stability index was 2.34.
With S13H the protein stability index was 2.51.
S13A gave a protein stability index of 1.35.
Variant S10Y has a protein stability index of 1.82.
For S10V, the protein stability index was 3.2.
S10I gave a protein stability index of 1.62.
With S10F the protein stability index was 2.12.
With S10D the protein stability index was 2.26.
With T4M the protein stability index was 2.57.
T4Q showed a protein stability index of 2.27.
T4N gave a protein stability index of 1.81.
Variant T4P has a protein stability index of 1.76.
In the case of V16P, the protein stability index is reported as 1.99.
Work on V16G yielded a protein stability index of 2.55.
For V16C, the protein stability index was 3.82.
In the case of V16R, the protein stability index is reported as 3.68.
Variant V16N has a protein stability index of 1.51.
V16K gave a protein stability index of 3.3.
V16D showed a protein stability index of 1.93.
Q6H showed a protein stability index of 3.77.
With Q6N the protein stability index was 2.38.
Work on Q6Y yielded a protein stability index of 2.07.
Q6A gave a protein stability index of 1.78.
For Q6F, the protein stability index was 2.83.
For A23F, the protein stability index was 2.72.
A23V gave a protein stability index of 2.43.
A23M showed a protein stability index of 3.33.
A23P showed a protein stability index of 2.3.
L12M showed a protein stability index of 2.17.
L12R showed a protein stability index of 4.48.
L12D showed a protein stability index of 3.6.
L12V gave a protein stability index of 2.89.
For L12W, the protein stability index was 3.11.
N15L showed a protein stability index of 1.92.
N15P gave a protein stability index of 2.39.
N15W gave a protein stability index of 2.27.
N15T showed a protein stability index of 2.89.
With W3N the protein stability index was 1.31.
For W3S, the protein stability index was 2.1.
With W3I the protein stability index was 2.66.
In the case of W3Y, the protein stability index is reported as 2.57.
For W3G, the protein stability index was 1.77.
For M22D, the protein stability index was 2.27.
M22I gave a protein stability index of 2.72.
M22R showed a protein stability index of 1.88.
Variant M22T has a protein stability index of 2.09.
M22C gave a protein stability index of 2.06.
N8D showed a protein stability index of 2.07.
Variant N8S has a protein stability index of 2.
Work on N8Y yielded a protein stability index of 3.61.
Variant P11G has a protein stability index of 2.51.
P11A gave a protein stability index of 2.01.
For P11N, the protein stability index was 2.66.
For P11L, the protein stability index was 2.59.
With P11H the protein stability index was 3.88.
R24N showed a protein stability index of 3.31.
R24G gave a protein stability index of 2.72.
In the case of R24K, the protein stability index is reported as 2.18.
With R24D the protein stability index was 2.41.
Work on R24H yielded a protein stability index of 2.82.
For K19R, the protein stability index was 2.64.
Variant K19H has a protein stability index of 3.44.
Work on K19Y yielded a protein stability index of 3.14.
Variant K19Q has a protein stability index of 3.01.
Work on K19T yielded a protein stability index of 2.69.
With V5W the protein stability index was 5.45.
For V5I, the protein stability index was 3.45.
With V5E the protein stability index was 2.94.
Variant V5M has a protein stability index of 3.19.
V5L showed a protein stability index of 2.96.
With V5G the protein stability index was 2.31.
Work on V5H yielded a protein stability index of 3.13.
In the case of L21R, the protein stability index is reported as 3.22.
Variant L21W has a protein stability index of 1.63.
